Reference: patent publication US20250368753A1

How the values were obtained:
[1] = target: proprotein convertase subtilisin/kexin type 9 (PCSK9) (human) (UniProt Q8NBP7); assay: DELFIA immunoassay (PerkinElmer Cat. #1244-330) on PCSK9
[2] = target: proprotein convertase subtilisin/kexin type 9 (PCSK9) (human) (UniProt Q8NBP7); assay: DELFIA immunoassay (PerkinElmer Cat. #1244-330), full-length IgG on PCSK9
[3] = target: proprotein convertase subtilisin/kexin type 9 (PCSK9) (human) (UniProt Q8NBP7); assay: PCSK9 biochemical disruption assay (BPS Biosciences Cat. #72010); antibody disrupts PCSK9 binding to LDL-R
[4] = target: proprotein convertase subtilisin/kexin type 9 (PCSK9) (human) (UniProt Q8NBP7); assay: PCSK9 biochemical disruption assay (BPS Biosciences Cat. #72010); antibody disrupts PCSK9 binding to LDL-R; positive signal but IC50 not reached at the concentrations tested

Chain of UniProt Q8NBP7 (Q8NBP7 other isoform, or with tags, fused parts or gaps limits assumed): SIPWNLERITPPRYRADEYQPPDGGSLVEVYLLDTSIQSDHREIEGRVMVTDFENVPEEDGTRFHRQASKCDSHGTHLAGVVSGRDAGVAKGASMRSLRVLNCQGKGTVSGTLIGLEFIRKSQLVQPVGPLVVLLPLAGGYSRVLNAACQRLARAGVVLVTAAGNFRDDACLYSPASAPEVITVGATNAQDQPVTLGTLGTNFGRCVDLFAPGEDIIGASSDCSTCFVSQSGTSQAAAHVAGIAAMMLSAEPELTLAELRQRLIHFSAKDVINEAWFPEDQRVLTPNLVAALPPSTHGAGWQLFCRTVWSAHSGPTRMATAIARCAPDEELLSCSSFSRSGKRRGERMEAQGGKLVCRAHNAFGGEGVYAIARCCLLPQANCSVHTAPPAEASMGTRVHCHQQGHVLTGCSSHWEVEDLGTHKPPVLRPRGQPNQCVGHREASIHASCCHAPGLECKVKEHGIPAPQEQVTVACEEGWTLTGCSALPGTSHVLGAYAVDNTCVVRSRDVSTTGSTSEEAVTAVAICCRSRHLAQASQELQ

Molecule: Control (antibody)
- Relative Binding to PCSK9 Measured by DELIFA Immunoassay [1]: 5.2

B1: Reference Antibody (antibody, V domains shown)
VH: QVQLVQSGAEVKKPGASVKVSCKASGYTFTSYYMHWVRQAPGQGLEWMGEISPFGGRTNYNEKFKSRVTMTRDTSTSTVYMELSSLRSEDTAVYYCARERPLYASDLWGQGTTVTVSS
VL: DIQMTQSPSSLSASVGDRVTITCRASQGISSALAWYQQKPGKAPKLLIYSASYRYTGVPSRFSGSGSGTDFTFTISSLQPEDIATYYCQQRYSLWRTFGQGTKLEIK
- Relative Binding to PCSK9 Measured by DELIFA Immunoassay [2]: 6.6
- IC50 [3]: 20 nM

B2: AB-9 (antibody, V domains shown)
VH: QVQLVQSGAEVKKPGASVKVSCKASGYTFTSYYMHWVRQAPGQGLEWMGEIKPSGGTSNYNEKFKSRVTMTRDTSTSTVYMELSSLRSEDTAVYYCARDRPLYYSDVWGQGTTVTVSS
VL: DIQMTQSPSSLSASVGDRVTITCRASQGISGSLAWYQQKPGKAPKLLIYSASYRYTGVPSRFSGSGSGTDFTFTISSLQPEDIATYYCQQYYSNYWTFGQGTKLEIK
- IC50 [4]: > 53 nM
- Relative Binding to PCSK9 Measured by DELIFA Immunoassay [2]: 3.9

B3: AB-4 (antibody, V domains shown)
VH: QVQLVQSGAEVKKPGASVKVSCKASGYTFTSYYMHWVRQAPGQGLEWMGEIRPSGGSTNYNEKFKSRVTMTRDTSTSTVYMELSSLRSEDTAVYYCARDRPLYSMDVWGQGTTVTVSS
VL: DIQMTQSPSSLSASVGDRVTITCRASQGISSALAWYQQKPGKAPKLLIYSASYRYTGVPSRFSGSGSGTDFTFTISSLQPEDIATYYCQQHYSSSWTFGQGTKLEIK
- IC50 [4]: > 53 nM
- Relative Binding to PCSK9 Measured by DELIFA Immunoassay [2]: 2.9

B4: AB-10 (antibody, V domains shown)
VH: QVQLVQSGAEVKKPGASVKVSCKASGYTFTSYYMHWVRQAPGQGLEWMGEILPSGGRTNYNEKFKSRVTMTRDTSTSTVYMELSSLRSEDTAVYYCARERPLYAMDVWGQGTTVTVSS
VL: DIQMTQSPSSLSASVGDRVTITCRASQGISSALAWYQQKPGKAPKLLIYSASYRYTGVPSRFSGSGSGTDFTFTISSLQPEDIATYYCQQRYSVALTFGQGTKLEIK
- Relative Binding to PCSK9 Measured by DELIFA Immunoassay [2]: 4.3
- IC50 [3]: 20.1 nM

B5: AB-1 (antibody, V domains shown)
VH: QVQLVQSGAEVKKPGASVKVSCKASGYTFTSYYMHWVRQAPGQGLEWMGEILPGGGTTNYNQKFKSRVTMTRDTSTSTVYMELSSLRSEDTAVYYCARESPLYASDIWGQGTTVTVSS
VL: DIQMTQSPSSLSASVGDRVTITCRASQGISTALAWYQQKPGKAPKLLIYSASYLYTGVPSRFSGSGSGTDFTFTISSLQPEDIATYYCQQRYSLWRTFGQGTKLEIK
- Relative Binding to PCSK9 Measured by DELIFA Immunoassay [2]: 1.8
- IC50 [3]: 18.4 nM

B6: AB-3 (antibody, V domains shown)
VH: QVQLVQSGAEVKKPGASVKVSCKASGYTFTSYWMHWVRQAPGQGLEWMGEIDPSGGSTNYNQKFQSRVTMTRDTSTSTVYMELSSLRSEDTAVYYCARERPLYASDVWGQGTTVTVSS
VL: DIQMTQSPSSLSASVGDRVTITCRASQGISSALAWYQQKPGKAPKLLIYSASYRYTGVPSRFSGSGSGTDFTFTISSLQPEDIATYYCQQRYSLWRTFGQGTKLEIK
- Relative Binding to PCSK9 Measured by DELIFA Immunoassay [2]: 2.8
- IC50 [3]: 16.1 nM

B7: AB-6 (antibody, V domains shown)
VH: QVQLVQSGAEVKKPGASVKVSCKASGYTFTSYYMHWVRQAPGQGLEWMGEISPFGGTTNYNEKFKSRVTMTRDTSTSTVYMELSSLRSEDTAVYYCARERPLYSSDVWGQGTTVTVSS
VL: DIQMTQSPSSLSASVGDRVTITCRASQGISSALAWYQQKPGKAPKLLIYSASYLYSGVPSRFSGSGSGTDFTFTISSLQPEDIATYYCQQRYSLWYTFGQGTKLEIK
- Relative Binding to PCSK9 Measured by DELIFA Immunoassay [2]: 1.8
- IC50 [3]: 16.5 nM

B8: AB-11 (antibody, V domains shown)
VH: QVQLVQSGAEVKKPGASVKVSCKASGYSFTSYYMHWVRQAPGQGLEWMGEIDLSGGSTNYNQKFQSRVTMTRDTSTSTVYMELSSLRSEDTAVYYCARERPLYAFDVWGQGTTVTVSS
VL: DIQMTQSPSSLSASVGDRVTITCRASQGISSALAWYQQKPGKAPKLLIYSASYRYTGVPSRFSGSGSGTDFTFTISSLQPEDIATYYCQQRYSLWRTFGQGTKLEIK
- Relative Binding to PCSK9 Measured by DELIFA Immunoassay [2]: 2.4
- IC50 [3]: 20.8 nM

B9: AB-8 (antibody, V domains shown)
VH: QVQLVQSGAEVKKPGASVKVSCKASGYTFTSYYMHWVRQAPGQGLEWMGEILPSGGRTNYNEKFKSRVTMTRDTSTSTVYMELSSLRSEDTAVYYCARERPLYAMDIWGQGTTVTVSS
VL: DIQMTQSPSSLSASVGDRVTITCRASQGISSALAWYQQKPGKAPKLLIYSASYRYTGVPSRFSGSGSGTDFTFTISSLQPEDIATYYCQQRYSTWRTFGQGTKLEIK
- Relative Binding to PCSK9 Measured by DELIFA Immunoassay [2]: 2.9
- IC50 [3]: 18.4 nM

B10: AB-2 (antibody, V domains shown)
VH: QVQLVQSGAEVKKPGASVKVSCKASGYTFTSYYMHWVRQAPGQGLEWMGWIEPFGGRTNYNEKFKSRVTMTRDTSTSTVYMELSSLRSEDTAVYYCARERPLYAMDVWGQGTTVTVSS
VL: DIQMTQSPSSLSASVGDRVTITCRASQGISGALAWYQQKPGKAPKLLIYSASYRYTGVPSRFSGSGSGTDFTFTISSLQPEDIATYYCQQRYSLSRTFGQGTKLEIK
- Relative Binding to PCSK9 Measured by DELIFA Immunoassay [2]: 3.1
- IC50 [3]: 17.2 nM

B11: AB-5 (antibody, V domains shown)
VH: QVQLVQSGAEVKKPGASVKVSCKASGYTFTSYWMHWVRQAPGQGLEWMGEISPSGGSTNYNEKFKSRVTMTRDTSTSTVYMELSSLRSEDTAVYYCARERPLYAMDVWGQGTTVTVSS
VL: DIQMTQSPSSLSASVGDRVTITCRASQGISSALAWYQQKPGKAPKLLIYSASYRYTGVPSRFSGSGSGTDFTFTISSLQPEDIATYYCQQRYSLWRTFGQGTKLEIK
- Relative Binding to PCSK9 Measured by DELIFA Immunoassay [2]: 4.3
- IC50 [3]: 18.9 nM

B12: AB-7 (antibody, V domains shown)
VH: QVQLVQSGAEVKKPGASVKVSCKASGYTFTSYYMHWVRQAPGQGLEWMGEIFPSGGRTNYNEKFKSRVTMTRDTSTSTVYMELSSLRSEDTAVYYCARERPFYASDLWGQGTTVTVSS
VL: DIQMTQSPSSLSASVGDRVTITCRASQGISSALAWYQQKPGKAPKLLIYSASNLYTGVPSRFSGSGSGTDFTFTISSLQPEDIATYYCQQRYSLWRTFGQGTKLEIK
- Relative Binding to PCSK9 Measured by DELIFA Immunoassay [2]: 2
- IC50 [3]: 18.1 nM
